Assay results as given in patent publication US9932382B2, “Kv2.1 channel-derived peptides and methods of use” (University of Pittsburgh—Of the Commonwealth System of …, priority 2014, dated 2018).

Key:
[1] = test system: Kv2.1 K^+ currents; test: Whole-cell patch clamp K+ currents in cortical neurons after DTDP; format: cell-based, rat
Experimental: (§1) For electrophysiological experiments, mixed cortical neuronal/glial cultures were prepared from embryonic day 16 (E16) Sprague-Dawley rats (Charles River Laboratories, Wilmington, Mass., USA). Donor rats were euthanized by gradual CO2 exposure. Cortices were dissociated with trypsin, and the resultant cell suspension, adjusted to 670,000 cells per well, was plated on glass coverslips in 6-well plates as described previously (Hartnett et al., J Neurochem 68, 1836-1845, 1997). Non-neuronal cell proliferation was inhibited after two weeks in culture with 1-2 μM cytosine arabinoside, and cultures utilized at three to four weeks in vitro. For neuronal transfection, cells were treated for five hours in serum-free medium with 2 μL LIPOFECTAMINE™ 2000 (Invitrogen, Carlsbad, Calif.), 50 μL Optimem (GIBCO, Grand Island, N.Y.), and 1.5 μg DNA per well. […]
Current recordings were performed on eGFP-positive co-transfected neurons or CHO cells using the whole-cell patch clamp configuration technique as described previously (McLaughlin et al., J Neurosci 21, 3303-3311, 2001). […] To determine current density values, steady-state current amplitudes were measured 180 msec after the initiation of the +10 mV step and normalized to cell capacitance. […]

[2] = test system: cortical neurons; test: Viability of transfected neurons exposed to activated microglia (GFP+ cell counts); format: cell-based, rat; conditions: overnight exposure to activated microglia; vector-expressing cells reduced by nearly 40%
Experimental: as §1, with “well. For CHO cell transfections, cells were plated on coverslips in 24-well plates at a density of 5.6×10^4 cells per well for electrophysiological measurements or in 100 mm dishes at a density of 1.7×10^6 cells per dish for biochemical studies.” for “well.”
Viability of transfected neurons was assessed by cell counts of GFP+ cells. […] GFP+ cells were counted in 20 random areas per coverslip using a 20× objective. […]
It was next evaluated whether C1a441-522 was sufficient to protect neurons against oxidative injury. […]

B1: C1a: rat Kv2.1 C1a peptide, residues 411-522 of SEQ ID NO: 3, expressed from a plasmid (protein, listed as Rattus norvegicus)
chain: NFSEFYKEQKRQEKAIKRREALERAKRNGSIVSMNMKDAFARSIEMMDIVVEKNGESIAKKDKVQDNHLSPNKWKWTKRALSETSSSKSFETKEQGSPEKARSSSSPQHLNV
- effect on DTDP-induced enhancement of K+ current densities ([1]; cortical neurons transfected with C1a-expressing plasmid, 30 μM DTDP 10 min, +10 mV step): failed to exhibit the enhanced K^+ current densities normally elicited by DTDP
- effect on non-apoptotic, basal delayed-rectifier K+ currents ([1]; cortical neurons, without DTDP): had no effect

B2: C1a441-522: distal segment of C1a, residues 441-522 of rat Kv2.1 (protein, UniProt P15387 441-522, looked up, fragment)
chain: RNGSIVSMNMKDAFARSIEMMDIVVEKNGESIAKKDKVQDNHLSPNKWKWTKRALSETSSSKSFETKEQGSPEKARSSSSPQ
- effect of activated microglia on viability of peptide-expressing neurons [2]: no detrimental effect
